In paper PMC4841250, “Structure and stability of recombinant bovine odorant-binding protein: I. Design and analysis of monomeric mutants” (PeerJ, 2016):

Biological target: the molecule itself
Test: SEC; gel filtration on Superdex-75 PC 3.2/30, buffered solution (20 mM Na-phosphate, pH 7.8) without OCT; calibrated with protein standards; monomer and dimer

B1: recombinant wild type bovine odorant-binding protein (natural protein)
chain: AQEEEAEQNLSELSGPWRTVYIGSTNPEKIQENGPFRTYFRELVFDDEKGTVDFYFSVKRDGKWKNVHVKATKQDDGTYVADYEGQNVFKIVSLSRTHLVAHNINVDKHGQTTELTELFVKLNVEDEDLEKFWKLTEDKGIDKKNVVNFLENEDHPHPE
notes: also called bOBP; bOBPwt; source: E. coli BL21(DE3), purified (Ni-agarose, HisGraviTrap columns)
stoichiometry N: 2
